Assay [1] concerns the target T1, VLP2 (virus-like particles of AAV2) (AAV2, UniProt P03135 1-735; P03135 1-598; P03135 1-533).
T1 construct: Empty AAV2 capsid; background says about 60 protein molecules, VP1:VP2:VP3 = 1:1:10; Immobilised on the ELISA plate
The experiment in a line: ELISA on VLP2; binding after 43°C 15 min / untreated. (In an ELISA, binding on a coated surface is turned into a signal by an enzyme label.)

Assay [2] concerns the target T1, VLP2 (virus-like particles of AAV2). The experiment in a line: ELISA on VLP2; A450 after pH 2.5 30°C 24 h / untreated.
Assay [3] shares this target. The experiment in a line: ELISA on VLP2; A450 after pH 2.5 30°C 2 h / untreated.
The target is the same in assay [4]. The experiment in a line: ELISA on VLP2; A450 after 50.3°C 15 min / untreated.
Assay [5] has the same target. The experiment in a line: ELISA on VLP2; A450 after 66.1°C 15 min / untreated.
Assay [6] shares this target. Description: ELISA on VLP2; binding after pH 3.0 51.1°C 15 min / untreated.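 Note: binding of the heat-treated AAV-binding protein to VLP2, expressed as a percentage of the binding of the same protein without heating.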
Method: (§1) The residual activity was calculated by dividing the binding activity of AAV-binding protein to VLP2 when the heat treatment was performed by the binding activity of AAV-binding protein to VLP2 when the heat treatment was not performed.
Assay [7] shares this target. Description: ELISA on VLP2; binding after pH 3.0 61.0°C 15 min / untreated.
Method: (3) The culture solution of (2) was centrifuged, and the obtained culture supernatant was diluted 32-fold with ultrapure water. The diluted culture solution in an amount of 60 μL and 60 μL of 0.1 M glycine hydrochloric acid buffer (pH 3.0) were mixed, and heat treatment and acid treatment were performed at 61.0° C. for 15 minutes.
as §1

Residue numbers refer to the chain shown, from its start.

T1 sequence (P03135 whole entry, chain 1 of 3): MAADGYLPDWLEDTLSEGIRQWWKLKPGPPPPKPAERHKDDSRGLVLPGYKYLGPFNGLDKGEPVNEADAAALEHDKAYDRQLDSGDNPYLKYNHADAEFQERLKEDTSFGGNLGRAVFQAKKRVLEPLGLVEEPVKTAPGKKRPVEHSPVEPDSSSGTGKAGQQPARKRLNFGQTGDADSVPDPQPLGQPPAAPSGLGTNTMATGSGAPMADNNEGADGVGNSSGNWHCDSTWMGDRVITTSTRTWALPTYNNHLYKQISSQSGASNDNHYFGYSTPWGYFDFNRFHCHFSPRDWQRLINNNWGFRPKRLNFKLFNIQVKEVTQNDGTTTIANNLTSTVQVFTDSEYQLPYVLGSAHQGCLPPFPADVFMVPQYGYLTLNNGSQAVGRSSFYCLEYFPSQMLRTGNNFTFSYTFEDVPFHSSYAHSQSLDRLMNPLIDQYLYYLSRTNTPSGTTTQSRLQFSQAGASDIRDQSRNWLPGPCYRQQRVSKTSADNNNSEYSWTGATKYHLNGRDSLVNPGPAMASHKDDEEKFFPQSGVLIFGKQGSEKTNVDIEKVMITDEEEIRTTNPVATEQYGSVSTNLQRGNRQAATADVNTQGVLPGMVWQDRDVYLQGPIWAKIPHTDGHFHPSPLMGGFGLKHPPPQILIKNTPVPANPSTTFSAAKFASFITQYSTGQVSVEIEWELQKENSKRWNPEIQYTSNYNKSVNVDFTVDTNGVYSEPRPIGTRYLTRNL
T1 sequence (P03135 139-735, tags left off, chain 2 of 3): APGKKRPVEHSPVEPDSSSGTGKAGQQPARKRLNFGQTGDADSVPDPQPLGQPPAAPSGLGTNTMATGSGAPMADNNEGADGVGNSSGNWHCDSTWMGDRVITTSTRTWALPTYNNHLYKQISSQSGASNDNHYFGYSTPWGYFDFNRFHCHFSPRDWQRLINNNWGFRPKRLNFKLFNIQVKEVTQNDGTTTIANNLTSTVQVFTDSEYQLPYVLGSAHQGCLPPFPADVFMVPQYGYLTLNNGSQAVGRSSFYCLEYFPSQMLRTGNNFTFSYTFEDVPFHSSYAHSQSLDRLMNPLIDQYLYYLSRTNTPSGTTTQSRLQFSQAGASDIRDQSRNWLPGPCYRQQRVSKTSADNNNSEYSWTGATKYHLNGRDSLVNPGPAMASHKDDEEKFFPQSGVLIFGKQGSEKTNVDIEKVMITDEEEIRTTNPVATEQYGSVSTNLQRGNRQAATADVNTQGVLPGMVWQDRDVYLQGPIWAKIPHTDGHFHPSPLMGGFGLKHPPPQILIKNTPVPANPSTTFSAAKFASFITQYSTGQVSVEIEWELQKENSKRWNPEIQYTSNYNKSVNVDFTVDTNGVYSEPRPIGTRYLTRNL
T1 sequence (P03135 203-735, chain 3 of 3): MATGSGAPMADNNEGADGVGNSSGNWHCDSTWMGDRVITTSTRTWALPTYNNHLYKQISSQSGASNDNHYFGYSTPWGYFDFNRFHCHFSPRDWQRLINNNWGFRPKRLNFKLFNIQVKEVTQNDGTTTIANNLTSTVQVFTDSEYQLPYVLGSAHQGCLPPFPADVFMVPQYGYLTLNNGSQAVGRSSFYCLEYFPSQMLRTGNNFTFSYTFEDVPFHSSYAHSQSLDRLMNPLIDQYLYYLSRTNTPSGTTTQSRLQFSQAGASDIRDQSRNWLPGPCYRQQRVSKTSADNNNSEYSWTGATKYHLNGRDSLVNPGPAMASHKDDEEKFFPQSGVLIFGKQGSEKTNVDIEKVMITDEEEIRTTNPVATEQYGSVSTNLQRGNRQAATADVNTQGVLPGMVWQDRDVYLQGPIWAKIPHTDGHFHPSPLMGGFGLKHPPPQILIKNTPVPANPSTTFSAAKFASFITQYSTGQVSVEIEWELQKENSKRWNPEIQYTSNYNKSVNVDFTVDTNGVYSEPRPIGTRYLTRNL

B1: AAV-binding protein No. 9 (Pro352Leu) (receptor)
chain: MGSAGESVQITLPKNEVQLNAYVLQEPPKGETYTYDWQLITHLRDYSGEMEGKHSQILKLSKLTPGLYEFKVIVEGQNAHGEGYVNVTVKPEPRKNRPPIAIVSPQFQEISLPTTSTVIDGSQSTDDDKIVQYHWEELKGPLREEKISEDTAILKLSKLVPGNYTFSLTVVDSDGATNSTTANLTVNKAVDHHHHHH
Turning to B1, the “Residual activity [%]” value amounted to 71.9% in assay [1]; 5.6% in assay [2]; 17.6% in assay [3]; 49% in assay [4]; 46.5% in assay [5].

B2: AAV-binding protein No. 79 (AVR2 + Lys338Asn, Asn487Asp) (receptor)
chain: B1 chain with K29N, Y33C, L43P, G81S, N178D
Take B2: in assay [6], the “Residual activity [%]” value was found to be 73.1%.

B3: AAV-binding protein No. 80 (AVR2 + Gln365Arg, Gly392Cys) (receptor)
chain: B1 chain with Y33C, L43P, Q56R, G81S, G83C
B3: the “Residual activity [%]” value in assay [6] was 49.9%.

B4: AAV-binding protein No. 71 (AVR2 + His389Asp) (receptor)
chain: B1 chain with Y33C, L43P, H80D, G81S
Turning to B4, in assay [6], the “Residual activity [%]” value turned out to be 71.9%.

B5: AAV-binding protein No. 74 (AVR2 + Ser476Gly) (receptor)
chain: B1 chain with Y33C, L43P, G81S, S167G
In the case of B5, the “Residual activity [%]” value in assay [6] is 63.4%.

B6: AAV-binding protein No. 102 (AVR5e + Leu328Pro, Lys362Asn, Thr397Ser, Arg406His) (receptor)
chain: B1 chain with L19P, Y33C, L43P, K53N, G81S, T88S, K90E, R97H, S167R, N178D
In the case of B6, in assay [7], the “Residual activity [%]” value came to 41.1%.

B7: AAV-binding protein No. 69 (AVR2 + Thr350Ser) (receptor)
chain: B1 chain with Y33C, T41S, L43P, G81S
As for B7, in assay [6], the “Residual activity [%]” value was 49.9%.

B8: AAV-binding protein No. 72 (AVR2 + Val394Ala) (receptor)
chain: B1 chain with Y33C, L43P, G81S, V85A
Regarding B8, the “Residual activity [%]” value in assay [6] worked out at 32%.

B9: AAV-binding protein No. 90 (AVR5e + Gly392Cys) (receptor)
chain: B1 chain with Y33C, L43P, G81S, G83C, K90E, S167R, N178D
Turning to B9, the “Residual activity [%]” value in assay [7] came to 53.3%.

B10: AAV-binding protein No. 78 (AVR2 + Leu328Pro, Ile366Phe) (receptor)
chain: B1 chain with L19P, Y33C, L43P, I57F, G81S
As to B10, the “Residual activity [%]” value in assay [6] stood at 55.9%.

B11: AAV-binding protein No. 77 (AVR2 + Leu321Pro, Ile409Val) (receptor)
chain: B1 chain with L12P, Y33C, L43P, G81S, I100V
As to B11, in assay [6], the “Residual activity [%]” value came to 34.3%.

B12: AAV-binding protein No. 45 (Asn329Asp, Tyr342His, Tyr355Cys) (receptor)
chain: B1 chain with N20D, Y33H, L43P, Y46C
For the molecule B12, the “Residual activity [%]” value in assay [1] was determined as 97.2%; in assay [2] it was 47.6%; in assay [3] it was 64.4%; in assay [4], 66%; in assay [5], 46.7%.

B13: AAV-binding protein No. 96 (AVR5e + Val326Glu, Phe379Ser) (receptor)
chain: B1 chain with V17E, Y33C, L43P, F70S, G81S, K90E, S167R, N178D
Take B13: the “Residual activity [%]” value in assay [7] was 60.9%.

B14: AAV-binding protein No. 47 (Asn329Tyr, Tyr377Cys, Arg406Ser) (receptor)
chain: B1 chain with N20Y, L43P, Y68C, R97S
As for B14, the “Residual activity [%]” value worked out at 92.7% in assay [1]; 34.8% in assay [2]; 43.6% in assay [3]; 64.5% in assay [4]; 58.7% in assay [5].

B15: AAV-binding protein No. 86 (AVR5e + Lys371Glu) (receptor)
chain: B1 chain with Y33C, L43P, K62E, G81S, K90E, S167R, N178D
Take B15: in assay [7], the “Residual activity [%]” value turned out to be 41.6%.

B16: AAV-binding protein No. 87 (AVR5e + Lys371Asn) (receptor)
chain: B1 chain with Y33C, L43P, K62N, G81S, K90E, S167R, N178D
Turning to B16, in assay [7], the “Residual activity [%]” value worked out at 56.5%.

B17: AAV-binding protein No. 85 (AVR5e + Val317Asp) (receptor)
chain: B1 chain with V8D, Y33C, L43P, G81S, K90E, S167R, N178D
For the molecule B17, the “Residual activity [%]” value in assay [7] stood at 50.2%.

B18: AAV-binding protein No. 16 (Leu369Gln) (receptor)
chain: B1 chain with L43P, L60Q
As to B18, the “Residual activity [%]” value in assay [1] worked out at 92.8%; in assay [2] it was 10%; in assay [3], 17.3%; in assay [4], 32%; in assay [5] it was 20.3%.

B19: AAV-binding protein No. 92 (AVR5e + Thr320Ala, Val381Asp) (receptor)
chain: B1 chain with T11A, Y33C, L43P, V72D, G81S, K90E, S167R, N178D
As to B19, the “Residual activity [%]” value in assay [7] was found to be 52.4%.

B20: AAV-binding protein No. 94 (AVR5e + Val326Glu, Asn329His) (receptor)
chain: B1 chain with V17E, N20H, Y33C, L43P, G81S, K90E, S167R, N178D
In the case of B20, in assay [7], the “Residual activity [%]” value amounted to 44.9%.

B21: AAV-binding protein No. 95 (AVR5e + Val326Ala, Lys362Glu) (receptor)
chain: B1 chain with V17A, Y33C, L43P, K53E, G81S, K90E, S167R, N178D
As to B21, in assay [7], the “Residual activity [%]” value worked out at 45.3%.

B22: AAV-binding protein No. 29 (Leu333Val, Tyr342Cys) (receptor)
chain: B1 chain with L24V, Y33C, L43P
In the case of B22, the “Residual activity [%]” value in assay [1] is 91.8%; in assay [2], 40.2%; in assay [3], 52.2%; in assay [4], 66.7%; in assay [5], 54.5%.

B23: AAV-binding protein No. 99 (AVR5e + Gln318Pro, Phe379Tyr, Glu401Val) (receptor)
chain: B1 chain with Q9P, Y33C, L43P, F70Y, G81S, K90E, E92V, S167R, N178D
For the molecule B23, in assay [7], the “Residual activity [%]” value worked out at 54%.

B24: AAV-binding protein No. 83 (AVR2 + Ile319Ser, Thr320Ile, Lys399Glu) (receptor)
chain: B1 chain with I10S, T11I, Y33C, L43P, G81S, K90E
Regarding B24, the “Residual activity [%]” value in assay [6] turned out to be 70.2%.

B25: AAV-binding protein No. 84 (AVR2 + Pro336Gln, Gln386Arg, Asn487Asp) (receptor)
chain: B1 chain with P27Q, Y33C, L43P, Q77R, G81S, N178D
On to B25, for which the “Residual activity [%]” value in assay [6] is 48.4%.

B26: AAV-binding protein No. 88 (AVR5e + Leu376Pro) (receptor)
chain: B1 chain with Y33C, L43P, L67P, G81S, K90E, S167R, N178D
In the case of B26, the “Residual activity [%]” value in assay [7] is 41.7%.

B27: AAV-binding protein No. 100 (AVR5e + Asn324Asp, Lys362Glu, Val499Glu) (receptor)
chain: B1 chain with N15D, Y33C, L43P, K53E, G81S, K90E, S167R, N178D, V190E
Turning to B27, the “Residual activity [%]” value in assay [7] worked out at 50.1%.

B28: AAV-binding protein No. 82 (AVR2 + Ser476Arg, Thr490Ser) (receptor)
chain: B1 chain with Y33C, L43P, G81S, S167R, T181S
Consider B28, for which, in assay [6], the “Residual activity [%]” value was 70.6%.

B29: AAV-binding protein No. 30 (Glu340Gly, Tyr342Cys) (receptor)
chain: B1 chain with E31G, Y33C, L43P
Take B29: the “Residual activity [%]” value in assay [1] stood at 91.3%; in assay [2], 56.1%; in assay [3], 70.5%; in assay [4], 65.4%; in assay [5], 52.4%.

B30: AAV-binding protein No. 73 (AVR2 + Val396Ala) (receptor)
chain: B1 chain with Y33C, L43P, G81S, V87A
As to B30, the “Residual activity [%]” value in assay [6] amounted to 48.9%.

B31: AAV-binding protein No. 76 (AVR2 + Asn492Asp) (receptor)
chain: B1 chain with Y33C, L43P, G81S, N183D
As to B31, in assay [6], the “Residual activity [%]” value amounted to 36.4%.

B32: AAV-binding protein No. 101 (AVR5e + Val326Glu, Asn329His, Glu378Val) (receptor)
chain: B1 chain with V17E, N20H, Y33C, L43P, E69V, G81S, K90E, S167R, N178D
Turning to B32, the “Residual activity [%]” value in assay [7] came to 48.5%.

B33: AVR7b (AAV-binding protein No. 91; AVR5e + Val317Asp, Lys371Asn) (receptor)
chain: B1 chain with V8D, Y33C, L43P, K62N, G81S, K90E, S167R, N178D
Consider B33, for which the “Residual activity [%]” value in assay [7] stood at 55.7%.

B34: AAV-binding protein No. 43 (Leu321Pro, Tyr342Asn, Ala461Ser) (receptor)
chain: B1 chain with L12P, Y33N, L43P, A152S
With B34, the “Residual activity [%]” value is 84.1% in assay [1]; 28.3% in assay [2]; 41.4% in assay [3]; 55.6% in assay [4]; 56.3% in assay [5].

B35: AAV-binding protein No. 89 (AVR5e + Glu378Gly) (receptor)
chain: B1 chain with Y33C, L43P, E69G, G81S, K90E, S167R, N178D
As for B35, the “Residual activity [%]” value in assay [7] is 46.1%.

B36: AAV-binding protein No. 81 (AVR2 + Phe379Ser, Ser476Gly) (receptor)
chain: B1 chain with Y33C, L43P, F70S, G81S, S167G
For B36, in assay [6], the “Residual activity [%]” value came out at 66.3%.

B37: AAV-binding protein No. 70 (AVR2 + Val383Ala) (receptor)
chain: B1 chain with Y33C, L43P, V74A, G81S
On to B37, for which the “Residual activity [%]” value in assay [6] was determined as 32.8%.

B38: AAV-binding protein No. 36 (Tyr355His, Asn387Ser) (receptor)
chain: B1 chain with L43P, Y46H, N78S
As to B38, the “Residual activity [%]” value in assay [1] worked out at 86.6%; in assay [2] it was 8.9%; in assay [3], 16.1%; in assay [4], 74.5%; in assay [5], 51%.

B39: AAV-binding protein No. 97 (AVR5e + Val332Ala, Lys371Glu) (receptor)
chain: B1 chain with V23A, Y33C, L43P, K62E, G81S, K90E, S167R, N178D
Consider B39, for which, in assay [7], the “Residual activity [%]” value worked out at 49.6%.

B40: AAV-binding protein No. 98 (AVR5e + Leu376Pro, Asn492Asp) (receptor)
chain: B1 chain with Y33C, L43P, L67P, G81S, K90E, S167R, N178D, N183D
As to B40, the “Residual activity [%]” value in assay [7] worked out at 47.6%.

These data come from US20220402995A1 (TOSOH, published 2022).
